From the supplement of paper PMC12042874 come the findings set out here.

± gives the uncertainty stated by the source.

This data set is described as follows: amyloid nucleation score (Sup35N fusion, yeast selection) (log enrichment); library NNK2; higher = more nucleation; inactive = no reads after selection. A digest of the protocol:
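The nucleation score is the log enrichment of output over input reads, calculated with DiMSum and centred on the mode score of non-aggregating sequences. Sequences with under 100 input reads were excluded. Reads came from Illumina sequencing of plasmid inserts from psi-negative yeast expressing Sup35N fused to peptides of 20 random codons, induced 24 hours with 100 μM copper sulfate and grown 7 days at 30°C without adenine and uracil.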
As for LLYNGVILLECGWYMVSVAS, the amyloid nucleation score was -0.071 ± 0.29.
The same measure for LMFCTRFSLYTGSWFWSSVT: 1.57 ± 0.18.
LMFWGCSGLRWLVVLSDNKA registered an amyloid nucleation score of 3.8 ± 0.097.
The same measure for LMHSQCSFSNELYVDSEARG: 0.093 ± 0.38; for LMHWV: -0.94 ± 0.38.
To LMKNEFSRYHTSCVVRGNSL belongs 0.334 ± 0.28; to LMRFSDVDY, “inactive”; to LMSIVVKVVDSTIIIKCVFS, -0.667 ± 0.76.
To LMTPVNSILLRLWCSIFLCF belongs 3.26 ± 0.12; to LMYCI, -0.211 ± 0.76; to LNFGMY, -0.772 ± 0.78.
Take LNGLDPSNAHMIYYLYTSYL: the amyloid nucleation score was -1.25 ± 0.54.
To LNICDLRPLV belongs -0.93 ± 0.76; to LNISYSAH, 0.264 ± 0.65; to LNLLNPWYSCKQSRVYNGYI, -1.31 ± 0.54.
The same measure for LNMVMLICNLWDVPHPRYLP: 5.14 ± 0.052.
Regarding LNNRLVFSKVHGCRICNRRS, the amyloid nucleation score result is “inactive”.
The same measure for LNTMPRK: 0.004 ± 1.1; for LNVDGDRAGVYIVKVHDPVR: 0.027 ± 0.74; for LNVLKNT: 0.187 ± 0.24.
To LNWFFLL belongs 0.937 ± 0.26.
In the case of LPDIFLSVYKLLVYKSLLPA, the amyloid nucleation score was found to be 0.073 ± 0.53.
As to LPILCTWLM, the amyloid nucleation score is -0.347 ± 0.55.
To LPLILV belongs 0.356 ± 0.8; to LQFLLLE, 3.38 ± 0.047.
The same measure for LQKWYGDD: 1.58 ± 0.34; for LQRSHSWTQLPLCTSRLRLL: 0.294 ± 1.1; for LQVIHGSPRLRLYDYQRNNF: 7.482 ± 0.04.
The same measure for LQYIY: -0.533 ± 0.78.
LRADLYCFACLNAPSC displayed an amyloid nucleation score of 5.89 ± 0.091.
To LRASWLYYFKSKVSFGCKGD belongs -0.405 ± 0.41.
The substance LREGCVTLLS gave an amyloid nucleation score of 0.27 ± 0.36.
Substance LRFYAFRLDALSLISKSGVQ had an amyloid nucleation score of 1.08 ± 0.36.
For LRFYERDILSILLFLMMMFV, the amyloid nucleation score is -1.07 ± 0.63.
As to LRGGTLVDNNLSANNYVYEI, the amyloid nucleation score was -0.967 ± 0.76.
To LRLFNLKQKKNRKNWRMFAG belongs -0.979 ± 0.6; to LRLFSFIVMGHNGVKHLVLC, 0.011 ± 0.8; to LRMMYRFGVCYVLL, 0.399 ± 0.31.
To LRPLIIPGSKRHCNTVL belongs -0.005 ± 0.79; to LRREGTYIRPCKDMYFGDSC, “inactive”; to LRSPWLF, -0.687 ± 0.79.
The same measure for LRTTGLHFSSRLMVFTLNWI: -0.237 ± 0.33.
As for LRVMYHFNQCQFSYLRDFGR, the amyloid nucleation score was found to be 8.38 ± 0.063.
To LRVPIR belongs 0.077 ± 0.28.
Take LRYKGMRFLNWMRNLKWDGI: the amyloid nucleation score amounted to 0.022 ± 0.65.
To LSCHSDITILHDYTNLLSFI belongs -0.007 ± 0.63; to LSFDEVTLVRAKFHGSVIRL, 4.86 ± 0.06.
To LSGLVFIN belongs -0.053 ± 1; to LSHMFVTALIVIEKFCLTAL, 0.111 ± 0.39.
As for LSIQLTEHA, the amyloid nucleation score turned out to be 2.13 ± 0.079.
To LSIVKFI belongs 1.3 ± 0.12; to LSLALDRQELAVHLFVLTCY, 0.829 ± 0.57.
As for LSLLSFGISASFVV, the amyloid nucleation score was -1.18 ± 0.41.
The same measure for LSLMTSLRWIGHSSFIVSKP: -0.168 ± 0.79; for LSLWTIGISPVGYRLTNRHQ: -0.315 ± 1; for LSQCYSRLLVSTMKSH: 0.854 ± 0.14.
The same measure for LSQQSSMLKDRITDICGDLL: 1.4 ± 0.33; for LSRCWVMSQQCKKSAGVFYA: -0.026 ± 0.55.
The same measure for LSRNYFVSVLFFSTVRMALA: -0.433 ± 0.54.
As for LSRRMDMRSSTSALHVSIQL, the amyloid nucleation score came to 6.413 ± 0.064.
The same measure for LSSFDSF: “inactive”; for LSTLLFRIYGLPS: -2.12 ± 0.49.
Substance LSTRLGNVSHFWLWTRSCMG showed an amyloid nucleation score of 1.04 ± 0.34.
To LSVAKPSSACRVKLWSPSVG belongs 0.492 ± 0.56; to LSVDQSSSELSTDLFDFLHF, “inactive”.
To LSVSCGVKCLEWADMMAHQV belongs -0.533 ± 0.54.
Regarding LSVSKSSIYLLLMRSRGHG, the amyloid nucleation score turned out to be 0.175 ± 0.55.
The same measure for LTGWMFISWSLTIPRPPTIE: -0.849 ± 1.1; for LTHWI: -0.284 ± 0.23.
To LTRCPYGSCLNWERWVGYMM belongs 1.93 ± 0.1; to LTRFMYYLFTDLC, -0.813 ± 1.1; to LTRQYNNRNPMSLRAIGYAF, “inactive”.
LTSGNSMIVVS showed an amyloid nucleation score of 0.15 ± 0.18.
To LTVYVFSDFSRATVGPSRWL belongs 0.238 ± 0.48; to LTYACSWYQKSQFGSCLNEW, 0.449 ± 0.26.
To LVALVLPGRINENKYVCGD belongs -0.588 ± 0.49; to LVCELYI, -0.171 ± 0.39.
The same measure for LVCNPYMRDTARSESLGSAW: 0.923 ± 0.66.
Regarding LVDLWSRRGCKKLVRYVESL, the amyloid nucleation score came to 0.818 ± 0.53.
The same measure for LVFNVLNRFKSARSSRCAGS: -1.14 ± 0.61; for LVFVAGRILMMIFFVSGLAI: 2.59 ± 0.09.
The same measure for LVGDLVVGYGMCRKGVVR: 5.03 ± 0.079.
To LVHRCRYGLLTGLFEGQPVM belongs -1.12 ± 1.1; to LVIRAKYYNPRTWGKFLHPV, -0.381 ± 0.28; to LVIVVT, 3.1 ± 0.091.
Take LVLLSFGSV: the amyloid nucleation score is -0.127 ± 1.
The same measure for LVLTDSAYRFFKRGDSVDKC: 1.62 ± 0.1.
Take LVLTSLQHGQFVVVVSVVW: the amyloid nucleation score was determined as 0.543 ± 0.31.
To LVMVWFLNLVFCFGDFNSNR belongs 0.74 ± 0.18; to LVMYGEDDD, -0.025 ± 1.1; to LVNTYYAHVWWLLVGIMMLS, -0.645 ± 1.1.
With LVNVM, the amyloid nucleation score stood at 1.39 ± 0.095.
To LVQCRNVSMNTILSIGGGKS belongs 6.17 ± 0.075; to LVQFHRLPRTRWGEFVRGDH, 3.84 ± 0.092; to LVRSIHMVPLTWFRSNSGMF, 4.13 ± 0.078.
To LVSMNFYCMILGIESLFVLS belongs 4.04 ± 0.074.
The same measure for LVSQLPVDFMVTFDILTVEI: -0.184 ± 1.1.
Take LVSVLGSTFLGSAWDTEGWY: the amyloid nucleation score is -0.579 ± 0.5.
The same measure for LVTKSAGLKGGLMRGDRSRK: 0.585 ± 0.37.
To LVWGVP belongs -0.945 ± 0.76.
The same measure for LVYCSLLNLILWMSAYI: -0.518 ± 0.45; for LVYNI: -0.081 ± 1.1; for LWDEVAGVAVKI: 3.3 ± 0.1.
Consider LWDLRSEYKFYINMDHFMTV, for which the amyloid nucleation score was -1.4 ± 0.75.
The same measure for LWFDLSSTLPQM: 0.396 ± 0.62.
Consider LWIGWSLKPKVDVRLCHWVK, for which the amyloid nucleation score was 0.173 ± 1.1.
The same measure for LWLIKARYFLELRRLESIRQ: 0.208 ± 1.1; for LWPCSCFVRRCYECFEGDAG: 3.2 ± 0.057; for LWQVRIRPQH: 1.37 ± 0.12.
The substance LWVCSCSNALTNGLWGAVSL displayed an amyloid nucleation score of 5.151 ± 0.036.
To LWVSVLFKMHAYWLGLEPNS belongs 2 ± 0.15.
In turn, LYFRVNDEGVHFTCEGQKKE yielded an amyloid nucleation score of 1.46 ± 0.17.
The substance LYHVISSNWHEDNDMT registered an amyloid nucleation score of 0.003 ± 0.23.
As for LYIHVDWLAWKTHVRQTKVT, the amyloid nucleation score is -0.455 ± 1.1.
The same measure for LYKRMYECRRYFLMWNYRGF: “inactive”; for LYLHKDHIDVNFNHMVKGLT: -0.263 ± 1.1; for LYLIRRHESCCLPNIR: 0.039 ± 0.46.
Regarding LYLSFKGRREFFVIYLKFHS, the amyloid nucleation score entry is “inactive”.
The same measure for LYNCVRYSSYLFNVVPCRGG: “inactive”; for LYQFSFFGYSYL: 2.39 ± 0.069.
To LYTKRSKY belongs -0.161 ± 1.1; to LYTLTENRLRLYMIYAGLRW, -0.362 ± 0.5; to LYVCHKICSSCLKGW, -1.11 ± 0.61.
Turning to LYVGYSDMPVWSPASVCISI, the amyloid nucleation score was 0.001 ± 0.65.
To LYVSALTSVRSWGCGNLVLP belongs 3.37 ± 0.08.
To LYWNVAGLGPQYKSLCLGFR belongs -0.753 ± 0.56; to LYWSFYNYWATHVGFWHKKA, -1.87 ± 0.64; to LYYLFSKFILRDETSSSQKK, “inactive”.
On to MAFVDISSANFRKITRDLLP, for which the amyloid nucleation score was determined as 0.82 ± 0.19.
To MANYYLCFYFVLVMRQMKFT belongs -1.18 ± 0.62; to MARTISAGSVLFNLGSRIWH, “inactive”; to MAYSGKVLFHVSDIVVWGKL, 5.9 ± 0.086.
To MCCGCVNVFFMHARHVLGWS belongs 8.977 ± 0.038; to MCCYVSCQ, 2.55 ± 0.12; to MCGFFVIIMRC, -0.652 ± 0.74.
To MCRRFNFIIEVVVNASMTIR belongs -1.31 ± 1.
Turning to MCSSPRRNDKLNNGRFYSCS, the amyloid nucleation score was -1.11 ± 0.54.
To MCTAFSDNHHTRTYPAPKSH belongs 0.196 ± 0.46; to MCVCCYSIRGLVTGWLWLMA, 4 ± 0.061.
To MDCRLV belongs 0.216 ± 0.51.
On to MDFYCRWVVWFQEGNF, for which the amyloid nucleation score worked out at 3.45 ± 0.058.
